Laboratory results reported in patent US20200325187A1 (Genentech, published 2020).
Where two headings read alike, the source gives them in different places. No end group written: not given here.

T1: hVEGF-A (8-109) (human, UniProt P15692 214-315)
T1 sequence (looked up): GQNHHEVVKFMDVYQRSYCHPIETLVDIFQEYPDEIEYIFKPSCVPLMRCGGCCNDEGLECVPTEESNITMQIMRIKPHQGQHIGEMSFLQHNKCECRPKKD


Tests used:
hVEGF-A [1] = target: T2, hVEGF-A (human, UniProt P15692-4 27-191, limits assumed); assay: SPR
T2 construct: also called human VEGF-A; WT
Procedure: Depending on the format of the assay either a streptavidin sensor (SA) or a dextran-coated (CM5) sensor was utilized as described below.
Reaction was then quenched by addition of 10 molar excess of Glycine pH 8.0 and the sample was buffer exchanged into PBS using an Amicon 0.5 mL 3000 MWCO ultra-centrifugal filters (EMD Millipore). The biotinylation state of the protein was verified by LC-MS analysis. Biotinylated VEGF-A was then captured on the surface until a resonance unit (RU) signal of about ˜400. For immobilization of VEGF-A on CM5 sensor, the surface was first activated with a mixture of N-ethyl-N′-(3-dimethylaminopropyl)carbodiimide hydrochloride and N-hydroxysuccinimide (EDC/NHS) according to the supplier instructions. VEGF-A was then diluted into coupling buffer (0.1 M Acetate Buffer, pH 5.0) and injected until the signal reached about ˜400 RU followed by a wash with 1 M ethanolamine pH 8.0 to quench remaining activated sites.

hVEGF-A (8-109) [2] = target: T1, hVEGF-A (8-109); assay: phage competition ELISA (clone on phage; the concentration varied on the axis is that of hVEGF (8-109))
hVEGF-A (8-109) [3] = target: T1, hVEGF-A (8-109); assay: as above; remark: listed apart in the source
hVEGF-A [4] = target: T2, hVEGF-A; assay: phage competition ELISA, soluble CKP
hVEGF-A (8-109) [5] = target: T1, hVEGF-A (8-109); assay: spot phage ELISA
Outline: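 Phage clones from four selection rounds were grown overnight at 37 °C with M13-KO7 helper phage. Bound phage was detected with anti-M13-HRP and TMB, with binding to BSA alone run in parallel as background.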

hVEGF-A (8-109) [6] = target: T1, hVEGF-A (8-109); assay: spot phage ELISA; remark: listed apart in the source
Procedure: After four rounds of binding selection, individual phage clones were picked and inoculated into 450 μl 2YT media containing 50 µg/ml Carbenecillin and M13-KO7 helper phage in 96-well blocks, which were grown at 37° C. overnight. […] The plates were washed and bound phage was detected with anti-M13-HRP followed by TMB substrate. In these assays, phage binding to BSA alone was tested in parallel to assess background binding. […] Positive clones were subjected to DNA sequence analysis.

Row | Binder | IC50 (read off the curve) (hVEGF-A (8-109) [3]) [nM] | IC50 (hVEGF-A [4]) [nM] | ELISA (hVEGF-A (8-109) [5]) | S/N vs BSA (hVEGF-A (8-109) [5]) | other results
1 | GCNIMLPYWGCGQSFECLAGCVCQYYQSCG (designed binder) [VEGF_CKP9.54.1.F8Y] | – | – | – | – | Kd (hVEGF-A [1]): 0.78 nM
2 | GCDVMQPYWGCEMDFDCLAGCICHWYNSCGSR (designed binder) [9.63.44-4] | – | – | – | – | IC50 (read off the curve) (hVEGF-A (8-109) [2]): ~0.04 nM
3 | GCDVMQPYWGCEMDFDCLAGCICHWYNSCGPT (designed binder) [9.63.44-5] | – | – | – | – | binding result (hVEGF-A (8-109) [2]): binds
4 | GCDVMQPYWGCEMDFDCLAGCVCHWYNSCGSM (designed binder) [9.63.44-6] | – | – | – | – | binding result (hVEGF-A (8-109) [2]): binds
5 | GCDVMQPYWGCEMDFDCLAGCVCHWYNSCGGI (designed binder) [9.63.44-7] | – | – | – | – | IC50 (read off the curve) (hVEGF-A (8-109) [2]): ~0.03 nM
6 | GCDVMQPYWGCEMDFDCLAGCICHWYNSCGTS (designed binder) [9.63.44-8] | ~0.02 | – | – | – | –
7 | GCDVMQPYWGCEMDFDCLAGCICHWYNSCGLQ (designed binder) [9.63.44-9] | ~0.03 | – | – | – | –
8 | GCDVMQPYWGCEMDFDCLVGCVCHWYNSCGDE (designed binder) [9.63.44-10] | ~5 | – | – | – | –
9 | GCDVMQPYWGCEMDFDCLAGCVCHWYNSCGDL (designed binder) [9.63.44-11] | – | – | – | – | binding result (hVEGF-A (8-109) [3]): binds
10 | GCDVMQPYWGCEMDFDCLAGCVCHWYNSCGPL (designed binder) [9.63.44-12] | ~0.1 | – | – | – | –
11 | GCDVMQPYWGCEMDFDCLAGCVCHWYNSCGQF (designed binder) [9.63.44-13] | ~0.3 | – | – | – | –
12 | GCDVMQPYWGCEMDFDCLAGCICHWYNSCGWK (designed binder) [9.63.44-14 (SEQ ID NO: 532)] | ~0.07 | – | – | – | –
13 | GCPTTRFKQYCKQDSDCLAGCVCGPNGFCG (designed binder) [VEGF_CKP6] | – | 3000 | 3.5 | 51.9 | –
14 | GCQDPTFNWALYCKQDSDCLAGCVCQMYQSCG (designed binder) [VEGF_CKP7] | – | 12000 | 3.4 | 54.5 | ELISA (hVEGF-A (8-109) [6]): 0.1; S/N vs BSA (hVEGF-A (8-109) [6]): 1.3
15 | GCRDLDVKWDCKQDSDCLAGCFCQYYSSCG (designed binder) [VEGF_CKP10] | – | 1000 | 3.2 | 43.7 | –
16 | GCRTPWEPHDITCKQDSDCLAGCVCGPNGFCG (designed binder) [VEGF_CKP11] | – | 80000 | 4.1 | 57.5 | –
17 | GCTTPWPPHEIMCKQDSDCLAGCVCGPNGFCG (designed binder) [VEGF_CKP12] | – | 60000 | 3.5 | 55.2 | –
18 | GCVTPWKPHWINCKQDSDCLAGCVCGPNGFCG (designed binder) [VEGF_CKP13] | – | 80000 | 3.5 | 56.3 | –
19 | GCNIMLPFWGCGRDFECLAGCVCQYYQSCG (designed binder, cysteine pairing not given here; also: -Alkyn: alkyne modification, position not given here) [VEGF_CKP9.54.90-Alkyn] | – | – | – | – | Kd (hVEGF-A [1]): 0.49 nM
